Measurements taken from CN117999283A (INST BASIC SCIENCE; KOREA ADVANCED INST SCI & TECH, dated 2024).

B1: 人Tie2 ECD (人Tie2的第23-735位残基) (receptor, human, UniProt Q02763 23-735, looked up)
chain: AMDLILINSLPLVSDAETSLTCIASGWRPHEPITIGRDFEALMNQHQDPLEVTQDVTREWAKKVVWKREKASKINGAYFCEGRVRGEAIRIRTMKMRQQASFLPATLTMTVDKGDNVNISFKKVLIKEEDAVIYKNGSFIHSVPRHEVPDILEVHLPHAQPQDAGVYSARYIGGNLFTSAFTRLIVRRCEAQKWGPECNHLCTACMNNGVCHEDTGECICPPGFMGRTCEKACELHTFGRTCKERCSGQEGCKSYVFCLPDPYGCSCATGWKGLQCNEACHPGFYGPDCKLRCSCNNGEMCDRFQGCLCSPGWQGLQCEREGIQRMTPKIVDLPDHIEVNSGKFNPICKASGWPLPTNEEMTLVKPDGTVLHPKDFNHTDHFSVAIFTIHRILPPDSGVWVCSVNTVAGMVEKPFNISVKVLPKPLNAPNVIDTGHNFAVINISSEPYFGDGPIKSKKLLYKPVNHYEAWQHIQVTNEIVTLNYLEPRTEYELCVQLVRRGEGGEGHPGPVRRFTTASIGLPPPRGLNLLPKSQTTLNLTWQPIFPSSEDDFYVEVERRSVQKSDQQNIKVPGNLTSVLLNNLHPREQYVVRARVNTKAQGEWSEDLTAWTLSDILPPQPENIKISNITHSSAVISWTILDGYSISSITIRYKVQGKNEDQHVDVKIKNATITQYQLKGLEPETAYQVDIFAENNIGSSNPAFSHELVTLPES
notes: range 23-735; The construct is defined on GenBank AAH35514.2; Tags are not described; also called hTie2 ECD
B2: hTAAB (hTie2活化小鼠单克隆抗体, 小鼠IgG1) (antibody, V domains shown)
VH: QVQLQQPGAELVRPGASVKLSCKASGYSFTSYWMNWVKQRPGQGLEWIGMIHPSDSETRLNQKFMDKATLTVDKSSSTAYMQLSSPTSEDSAVYYCARGLYGNSWGQGTLVTVSA
VL: DIQMTQSPSSLSASLGERVSLTCRASQDIGISLNWLQQEPDGTIKRLIYATSSLDSGVPKRFSGSRSGSDYSLTISSLESEDFVDYYCLQYASSPYTFGGGTKLEIK
notes: Mouse IgG1 from a hybridoma; also called 小鼠hTAAB; 亲本hTAAB

Legend:
[1] = target: the molecule itself; assay: SEC-MALS; self-association in solution
[2] = target: B1; assay: SPR (Biacore T200): hTie2 ECD amine-coupled on CM5, IgG as analyte at 0-64 nM, 1:1 model

Kd [2] [nM]	koff [2] [s⁻¹]	kon [2] [M⁻¹ s⁻¹]	Binder	binding result [1]
–	–	–	B1	no binding (tested: 1mg/ml)
4.2	0.0006	140000	B2	–
